From US20040214235A1 (KIRIN BEER, published 2004) come the findings set out here.

Some results are limits rather than exact numbers.

The target of assay [1] is T1, human TRAIL-R2 on the surface of cells (Colo205, U251, Jurkat, normal human hepatocytes) (human, UniProt O14763 56-440). The experiment in a line: cell-based or functional assay.
The target of assay [2] is T2, TRAIL-R2-hFc, fusion protein of the extracellular region of human TRAIL-R2 and the Fc region of human IgG1 (human, UniProt O14763 56-210).
T2 construct: extracellular domain; Bought (ALEXIS) or made with TRAIL-R2 amino acids 1 to 183 as the extracellular region; not shown: Fc region of human IgG1
Description: SPR (BIACORE 2000), TRAIL-R2-hFc immobilised on CM5, bivalent model. On the procedure:
TRAIL-R1-hFc or TRAIL-R2-hFc was diluted at a final concentration of 10 μg/ml with 10 mM Acetic Acid (pH 4.0), and then immobilized on a sensor chip CM5 by the amine coupling method. The immobilization conditions are as follows. NHS activation and ethanolamine blocking were performed according to the methods described in the instructions. Coupling of TRAIL-R1-hFc and that of TRAIL-R2-hFc were performed by manual injection as described in the instructions.
Each antibody of the dilution series was added in order at a flow rate of 20 μl/minute by the KINJECT method (binding for 2 minutes and dissociation for 6 minutes), thereby obtaining a sensorgram. […] Each antibody of the dilution series was added in order at a flow rate of 20 μl/minute by the KINJECT method (binding for 2 minutes and dissociation for 2 minutes), thereby obtaining sensorgrams. For each antibody, kinetics analysis was performed using each sensorgram and BIAevaluation software ver3.2 (Biacore). As a fitting model, global fitting was performed using a Bivalent model, so that the binding rate constant and the dissociation rate constant were found. In addition, a dissociation constant (Kd value) was calculated from the two constants. Also, the sensorgrams were used for fitting after the subtraction of control cells and buffer correction. In the tables, “kass” indicates the binding rate constant, “kdiss” indicates the dissociation rate constant, and “KD” indicates the dissociation constant.

In assay [3] the target is T1, human TRAIL-R2 on the surface of cells …. The experiment in a line: cell-based or functional assay. This is another data set of the same source.
For assay [4], the target named is T2, TRAIL-R2-hFc, fusion protein of the …. The experiment in a line: ELISA on a plate coated with TRAIL-R2-hFc, detection with HRP-labeled goat anti-human Ig kappa, absorbance at 450 nm (method of Example 18).
Description: 50 μl of the thus prepared solution was added to each well of a 96-well microplate for ELISA (Maxisorp, Nunc) and incubated for 1 hour at room temperature or at 4° C. overnight, thereby coating TRAIL-R1-hFc or TRAIL-R2-hFc to the microplate. […] Thus, a microplate having each well coated with TRAIL-R1-hFc or TRAIL-R2-hFc was prepared.
The culture supernatant of each hybridoma (50 μl) was added to each well, reaction was performed at room temperature for 1 hour, and then each well was washed three times in 0.1% Tween20-containing PBS (PBS-T). Subsequently, horseradish peroxidase-labeled goat anti-human Igκ antibodies (50 μl/well, Biosource International) were diluted 2000 times in PBS-T containing 10% Block Ace (Dainippon Pharmaceutical Co., Ltd.). 50 μl of the thus prepared solution was added to each well, and incubation was then performed at room temperature for 30 minutes; The microplate was washed three times with PBS-T, and then 50 μl of a TMB chromogenic substrate solution (DAKO) was added to each well, followed by incubation at room temperature for 20 minutes. 0.5M sulfuric acid was added (50 μl/well) to each well to stop reaction.
For the measurement of the binding activity, 96-well microplate for ELISA (Maxisorp, Nunc) to which TRAIL-R2-hFc was coated was used.
The target in assay [5] is T3, TRAIL-R1-hFc, fusion protein of the extracellular region of human TRAIL-R1 and the Fc region of human IgG1 (human, UniProt O00220 24-239).
T3 construct: extracellular domain; Bought (ALEXIS); not shown: Fc region of human IgG1
T3 sequence (looked up): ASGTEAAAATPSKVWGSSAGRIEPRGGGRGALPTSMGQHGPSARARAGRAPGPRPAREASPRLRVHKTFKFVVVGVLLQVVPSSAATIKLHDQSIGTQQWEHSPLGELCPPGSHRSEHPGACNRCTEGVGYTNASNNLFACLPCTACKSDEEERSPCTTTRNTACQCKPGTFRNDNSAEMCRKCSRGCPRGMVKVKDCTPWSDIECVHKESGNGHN
Description: ELISA, TRAIL-R1-hFc coated plate, purified antibody.

Assay [6] has as its target T3, TRAIL-R1-hFc, fusion protein of the …. Description: ELISA, TRAIL-R1-hFc coated plate, hybridoma culture supernatant.

B1: human anti-TRAIL-R2 monoclonal antibody E-11-13 (antibody, IgG1, V domains shown)
VH: QLQLQESGPGLVKPSETLSLTCTVSGGSIISKSSYWGWIRQPPGKGLEWIGSIYYSGSTFYNPSLKSRVTISVDTSKNQFSLKLSSVTAADTAVYYCARLTVAEFDYWGQGTLVTVSS
VL: EIVLTQSPATLSLSPGERATLSCRASQSVSSFLAWYQQKPGQAPRLLIYDASNRATGIPARFSGSGSGTDFTLTISSLEPEDFAVYYCQQRSNWPLTFGPGTKVDIK
notes: Hybridoma FERM BP-7698 / BP-7770; also called E-11-3
As for B1, in assay [1], the “LD50, Jurkat cells, 48 h” value is 0.1 µg/mL and the “LD50, U251 cells, 48 h” value turned out to be 0.3 µg/mL. In assay [2], this molecule gave a Kd of 0.0729 nM, an off-rate constant (koff) of 3.84e-05 s⁻¹ and a kon of 527000 M⁻¹ s⁻¹. In addition, in assay [3], the “LD50, Colo205 cells, 48 h, with goat anti-human IgG cross-linker” value (from here on “LD50, Colo205 cells, 48 h”) came to 0.11 µg/mL and the “LD50, normal human hepatocytes, 24 h, with goat anti-human IgG cross-linker” value (“LD50, normal human hepatocytes, 24 h” below) worked out at 2.8 µg/mL.

B2: human anti-TRAIL-R2 monoclonal antibody L-30-10 (antibody, IgG1, V domains shown)
VH: QLQLQESGPGLVKPSETLSLTCTVSGGSISSRSNYWGWIRQPPGKGLEWIGNVYYRGSTYYNSSLKSRVTISVDTSKNQFSLKLSSVTVADTAVYYCARLSVAEFDYWGQGILVTVSS
VL: EIVLTQSPATLSLSPGERATLSCRASQSVSSFLAWYQQKPGQAPRLLIYDASNRATGSPARFSGSGSGTDFTLTISSLEPEDFAVYYCQQRSDWPLTFGPGTKVDIK
notes: Hybridoma FERM BP-7700 / BP-7769
Turning to B2, in assay [1], the “LD50, Jurkat cells, 48 h” value stood at 0.13 µg/mL and the “LD50, U251 cells, 48 h” value is 0.17 µg/mL. Further, in assay [2], the Kd came out at 2.35 nM, the koff was determined as 0.00144 s⁻¹ and the kon stood at 613000 M⁻¹ s⁻¹. In assay [3], the “LD50, Colo205 cells, 48 h” value was 0.1 µg/mL and the “LD50, normal human hepatocytes, 24 h” value amounted to 24 µg/mL.

B3: recombinant 0304 antibody of which subclass is IgG4 (antibody, V domains shown)
VH: QVQLVQSGAEMKKPGASVKVSCKTSGYTFTNYKINWVRQAPGQGLEWMGWMNPDTDSTGYPQKFQGRVTMTRNTSISTAYMELSSLRSEDTAVYYCARSYGSGSYYRDYYYGMDVWGQGTTVTVSS
VL: EIVLTQSPATLSLSPGERATLSCRASQSVSSYLAWYQQKPGQAPRLLIYDASNRATGIPARFSGSGSGTDFTLTISSLEPEDFAVYYCQQRSNWPLTFGGGTKVEIK
Consider B3, for which the “EC50 (read off the curve)” value in assay [4] was about 0.03 µg/mL.

B4: human anti-TRAIL-R2 monoclonal antibody 0304 (from the hybridoma) (antibody, IgG4, V domains shown)
VH: QVQLVQSGAEMKKPGASVKVSCKTSGYTFTNYKINWVRQAPGQGLEWMGWMNPDTDSTGYPQKFQGRVTMTRNTSISTAYMELSSLRSEDTAVYYCARSYGSGSYYRDYYYGMDVWGQGTTVTVSS
VL: EIVLTQSPATLSLSPGERATLSCRASQSVSSYLAWYQQKPGQAPRLLIYDASNRATGIPARFSGSGSGTDFTLTISSLEPEDFAVYYCQQRSNWPLTFGGGTKVEIK
notes: IgG4, human kappa light chain
With B4, in assay [3], the “LD50, Colo205 cells, 48 h” value stood at 0.02 µg/mL and the “LD50, normal human hepatocytes, 24 h” value is 0.002 µg/mL. The binding result in assay [5] is listed as “no binding”.

B5: recombinant 0304 antibody of which subclass is IgG1 (antibody, V domains shown)
VH: QVQLVQSGAEMKKPGASVKVSCKTSGYTFTNYKINWVRQAPGQGLEWMGWMNPDTDSTGYPQKFQGRVTMTRNTSISTAYMELSSLRSEDTAVYYCARSYGSGSYYRDYYYGMDVWGQGTTVTVSS
VL: EIVLTQSPATLSLSPGERATLSCRASQSVSSYLAWYQQKPGQAPRLLIYDASNRATGIPARFSGSGSGTDFTLTISSLEPEDFAVYYCQQRSNWPLTFGGGTKVEIK
Turning to B5, the “EC50 (read off the curve)” value in assay [4] is about 0.03 µg/mL.

B6: human anti-TRAIL-R2 monoclonal antibody H-48-2 (antibody, IgG1, V domains shown)
VH: QLQLQESGPGLVKPSETLSLTCTVSGGSISSSSYYWGWVRQPPGKGLEWIGSIHYSGSTFYNPSLKSRVTISVDTSKNQFSLKLSSVTAADTTVYYCARQGSTVVRGVYYYGMDVWGQGTTVTVSS
VL: not shown
notes: IgG1, human kappa light chain; Hybridoma FERM BP-7599; also called H-48-2-IgG1
For B6, the binding result in assay [6] was “no binding”.

B7: human anti-TRAIL-R2 monoclonal antibody KMTR1 (antibody, IgG1, V domains shown)
VH: EVQLLESGGGLVQPGRSLRLSCAASGFTFSSYAMSWVRQAPGKGLEWVSAISGSGGSRYYADSVKGRFTISRDNSKNTLYLQMNSLRAEDTAVYYCAKESSGWFGAFDYWGQGTLVTVSS
VL: EIVLTQSPDFQSVTPKEKVTITCRASQSIGSSLHWYQQKPDQSPKLLIKYASQSFSGVPSRFSGSGSGTDFTLTINSLEAEDAAAYYCHQSSSLPITFGQGTRLEIK
notes: IgG1, human kappa light chain
B7: in assay [3], the “LD50, Colo205 cells, 48 h” value was determined as 0.04 µg/mL and the “LD50, normal human hepatocytes, 24 h” value was over 10 µg/mL. Moreover, the binding result in assay [5] is “binds”.
